Experiment [1] deals with T1, paired immunoglobulin-like receptor B (PIR-B), C-terminal biotinylated (mouse), P97484.
T1 chain: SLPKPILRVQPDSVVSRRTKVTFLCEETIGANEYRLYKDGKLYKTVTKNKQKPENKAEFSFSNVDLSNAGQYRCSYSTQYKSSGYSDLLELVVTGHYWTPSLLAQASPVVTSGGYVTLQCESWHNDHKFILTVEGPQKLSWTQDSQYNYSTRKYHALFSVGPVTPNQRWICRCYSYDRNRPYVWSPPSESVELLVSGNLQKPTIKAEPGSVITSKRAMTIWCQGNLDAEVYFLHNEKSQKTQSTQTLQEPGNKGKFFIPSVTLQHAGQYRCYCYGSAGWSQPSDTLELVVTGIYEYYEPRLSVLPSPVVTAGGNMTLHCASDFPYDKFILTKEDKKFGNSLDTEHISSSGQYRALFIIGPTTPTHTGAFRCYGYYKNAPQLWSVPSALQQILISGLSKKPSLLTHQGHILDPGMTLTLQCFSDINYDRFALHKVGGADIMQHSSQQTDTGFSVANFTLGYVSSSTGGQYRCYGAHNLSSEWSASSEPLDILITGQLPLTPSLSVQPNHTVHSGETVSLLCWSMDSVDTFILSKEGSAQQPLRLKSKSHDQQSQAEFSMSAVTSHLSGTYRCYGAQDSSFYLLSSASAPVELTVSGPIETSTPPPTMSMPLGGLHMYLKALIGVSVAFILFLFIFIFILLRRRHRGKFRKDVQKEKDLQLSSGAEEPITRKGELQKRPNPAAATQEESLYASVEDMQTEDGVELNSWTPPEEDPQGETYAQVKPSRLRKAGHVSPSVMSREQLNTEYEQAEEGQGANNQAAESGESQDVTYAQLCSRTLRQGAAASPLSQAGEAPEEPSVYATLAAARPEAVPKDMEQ
Description: SPR.

For experiment [2], the target named is two N-terminal domains (D1D2) of LILRB2 with a C-terminal biotinylation tag, biotinylated (human). Briefly: SPR.

B1: soluble HLA-G2 homodimer (non-PEGylated) (domain or fragment)
chain: GSHSMRYFSAAVSRPGRGEPRFIAMGYVDDTQFVRFDSDSACPRMEPRAPWVEQEGPEYWEEETRNTKAHAQTDRMNLQTLRGYYNQSEANPPKTHVTHHPVFDYEATLRCWALGFYPAEIILTWQRDGEDQTQDVELVETRPAGDGTFQKWAAVVVPSGEEQRYTCHVQHEGLPEPLMLRW
modifications: not checked
For orientation: Kd means the constant that tells how readily two partners part at equilibrium. A lower Kd goes with tighter binding. In turn, B1 returned a specific binding response at 6.2 μM in experiment [1] of 100 RU. The Kd in experiment [2] fell in the range of 0.041 to 0.064 pM.

The values are drawn from publication PMC11756389.
